Experimental data reported in US20230265192A1 (GIGAGEN, published 2023).

B1: antibody A13 (L13H13) (antibody, V domains shown)
VH: QVQLVESGGGVVQPGRSLRLSCAASGFTFSSYGMHWVRQAPGKGLEWVAVIWYDGRNKDYADSVKGRITISRDNSKNTLYLQMNSLRAEDTAVYYCARGGLLGPYFDYWGQGTLVTVSS
VL: not shown
notes: also called aCTLA-4.14
B2: antibody A4 (L4H4) (antibody, V domains shown)
VH: QVQLVESGGGVVQPGRSLRISCAASGFTFSSYGIHWVRQAPGKGLQWVAVIWYDGRNKYYADSVKGRFTISRDNSKNTLYLQMNSLRAEDTAVYYCSRSGSFGAFDIWGQGTMVTVSS
VL: EIVLTQSPGTLSLSPGDRATLSCRASQSGSSSYLAWYQQKPGQAPRLLIYGASSRATGIPDRFSGSGSGTDFTLTISRLEPEDFAVYYCQQYGTSPFTSGPGTKVDIK
notes: also called aCTLA-4.29
B3: antibody A10 (L10H10) (antibody, V domains shown)
VH: QVQLVESGGGVVQPGRSLRLSCVASGFTLSSYGMHWVRQAPGKGLEWVAVIWYDGSNKHYADSVKGRFTISRDNSKNTLSLQMNSLRAEDTAVYYCARGGQLGPFDYWGQGTLVTVSS
VL: not shown
notes: also called aCTLA-4.22
B4: antibody A6 (L6H6) (antibody, V domains shown)
VH: QVQLVESGGGVVQPGRSLRLSCAASGFTFSSYGMHWVRQAPGKGLEWVAVIWYDGSYKYYADSVKGRFTISRDDSKNTLYLQMSSLRAEDTAVYYCARAPHYAILTGYYEDYWGQGTLVTVSS
VL: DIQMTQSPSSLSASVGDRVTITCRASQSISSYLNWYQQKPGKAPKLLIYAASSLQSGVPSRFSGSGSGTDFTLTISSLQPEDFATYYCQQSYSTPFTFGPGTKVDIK

What follows are binders tested against T1, His-tagged cynomolgus CTLA-4 (CT4-C5227; Acro Biosystems) (cynomolgus, UniProt G7PL88 36-161) (assay: BLI (Octet), single antigen concentration).
T1 construct: also called soluble cynomolgus CTLA-4; cyno CTLA-4
T1 sequence (G7PL88 entry or part of it limits assumed, form in doubt): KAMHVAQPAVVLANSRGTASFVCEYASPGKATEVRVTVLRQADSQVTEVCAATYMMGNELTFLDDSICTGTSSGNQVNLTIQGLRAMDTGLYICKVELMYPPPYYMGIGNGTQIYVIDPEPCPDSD
Method: (§1) Table 23. In vitro characterization of scFvs reformatted as full-length antibodies. kon, koff, and KD of the indicated CTLA-4 mAbs for soluble human CTLA-4 was determined by SPR (Carterra). Geometric MFI of the indicated CTLA-4 mAbs bound to CTLA-4⁺ or CD27⁺ CHO cells as detected by a secondary human IgG antibody and flow cytometry. Affinity (KD) of the indicated CTLA-4 mAbs for soluble cynomolgus CTLA-4 was determined by a single antigen concentration BLI measurement (Octet). […] Due to constraints on sample size in each Promega bioassay kit, this set of aCTLA-4 mAbs was analyzed using multiple plates (plate letters correspond to Plate A-D in FIG. 20D).
Antibodies were loaded at 5 μg/mL onto Protein A biosensors that were dipped into 80 nM antigen, and kinetic constants were calculated using a monovalent model.

Row | Kd | Binder
1 | 9.6 nM | B1
2 | 1.2 nM | B2
3 | 3.1 nM | B3
4 | 1.6 nM | B4

What follows are binders tested against T1, His-tagged cynomolgus CTLA-4 … (assay: BLI (Octet)).
Method: (§2) The binding specificity and affinity of each full-length antibody towards CTLA-4 were determined using biolayer interferometry (BLI) and/or surface plasmon resonance (SPR). Anti-cyno CTLA-4 and anti-mouse CTLA-4 affinities were tested using ForteBio (BLI). Anti-human CTLA-4 affinities were measured using Carterra (SPR).
(§3) For BLI, antibodies were loaded onto an Anti-Human IgG Fc (AHC) biosensor using the Octet Red96 system (ForteBio). Loaded biosensors were dipped into antigen dilutions beginning at 300 nM, with 6 serial dilutions at 1:3. Kinetic analysis was performed using a 1:1 binding model and global fitting.

Row | Kd | Binder
5 | 9.6 nM | B1
6 | 1.2 nM | B2
7 | 3.1 nM | B3
8 | 1.6 nM | B4

Each binder was assayed against mouse CTLA-4 (mouse, UniProt P09793 36-161, limits assumed) (assay: BLI (Octet)).
Chain of mouse CTLA-4 (P09793 36-161 limits assumed): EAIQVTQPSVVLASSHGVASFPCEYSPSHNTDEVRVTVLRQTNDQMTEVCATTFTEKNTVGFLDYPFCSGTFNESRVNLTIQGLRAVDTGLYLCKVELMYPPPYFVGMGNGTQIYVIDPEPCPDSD
Method: as §2, §3

Row | binding result | Kd | Binder
9 | no binding (tested: 300 nM) |  | B2
10 | no binding (tested: 300 nM) |  | B3
11 |  | 87.8 nM | B4

The binders below were run against T2, human CTLA-4 expressed on the cell surface (human, UniProt P16410 36-223) (assay: cell-based or functional assay).
T2 sequence (P16410 36-223 limits assumed): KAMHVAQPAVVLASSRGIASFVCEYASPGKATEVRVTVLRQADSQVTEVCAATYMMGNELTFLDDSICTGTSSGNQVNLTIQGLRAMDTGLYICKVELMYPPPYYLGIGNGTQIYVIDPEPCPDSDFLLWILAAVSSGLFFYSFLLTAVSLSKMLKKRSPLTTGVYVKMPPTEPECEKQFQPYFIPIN

Row | Cell-based blocking activity EC50 | Cell-based blocking activity max signal (RLU) | Binder
12 | 0.09 µg/mL | 73 RLU | B1
13 | 0.15 µg/mL | 444 RLU | B2
14 | 0.26 µg/mL | 134 RLU | B3
15 | 0.18 µg/mL | 338 RLU | B4

What follows are binders tested against T2, human CTLA-4 expressed on the cell … (assay: flow cytometry, 10 µg/mL mAb, geometric MFI).
Method: as §1
(§4) To determine if the CTLA-4 mAbs bound the appropriate antigen expressed on the surface of mammalian cells, CHO cell lines stably expressing human CTLA-4 or an irrelevant antigen (CD27) were generated. Cells (0.5×10⁶ each cell line) were combined and washed with MACS buffer (Dulbecco's Phosphate Buffered Saline [DPBS], with 0.5% bovine serum albumin [BSA], and 2 mM ethylenediaminetetraacetic acid [EDTA]). The cells were incubated with 10 μg/mL anti-CTLA-4 for 30 min at 4° C., then excess, unbound mAbs were removed by washing twice with MACS buffer. The cells were then stained with PE-conjugated anti-Human IgG Fc antibody (clone M1310G05, BioLegend 410720, San Diego, Calif., USA) to detect bound anti-CTLA-4 and with fluorescein isothiocyanate (FITC)-conjugated anti-CD27 (clone 0323, BioLegend 302806, San Diego, Calif., USA) to distinguish the cells expressing the irrelevant antigen. Cells were washed twice with MACS buffer, fixed with 4% paraformaldehyde fixation buffer (BioLegend 420801, San Diego, Calif., USA) for 20 minutes at room temperature and washed twice more with MACS buffer.

Row | MFI of CTLA-4+ CHO cells | Binder
16 | 1024 | B1
17 | 999 | B2
18 | 641 | B3
19 | 939 | B4

These binders were tested against T3, CD27 on CHO cells (UniProt P26842 20-260, limits assumed) (assay: flow cytometry, 10 µg/mL mAb, geometric MFI).
T3 construct: whole, on cells; also called CD27+ CHO cells; irrelevant antigen (CD27)
T3 sequence (P26842 20-260 limits assumed): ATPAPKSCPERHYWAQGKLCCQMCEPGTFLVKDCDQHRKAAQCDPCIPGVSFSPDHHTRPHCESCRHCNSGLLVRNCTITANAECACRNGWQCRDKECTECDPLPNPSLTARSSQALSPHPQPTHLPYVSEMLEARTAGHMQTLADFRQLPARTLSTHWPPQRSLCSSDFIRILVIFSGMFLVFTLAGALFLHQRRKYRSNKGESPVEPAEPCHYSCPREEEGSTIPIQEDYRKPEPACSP
Method: as §1, §4

Row | MFI of CD27+ CHO cells | Binder
20 | 17 | B1
21 | 16.3 | B2
22 | 15.2 | B3
23 | 17.8 | B4

Each binder was assayed against T4, His-tagged human CTLA-4 (CT4-H5229; Acro Biosystems) (human, UniProt P16410 36-161) (assay: SPR (Carterra), soluble human CTLA-4).
T4 construct: bought soluble protein; also called soluble human CTLA-4; recombinant human CTLA-4; not shown: His tag
T4 sequence (P16410 36-161 limits assumed): as the sequence (G7PL88 entry or part of it limits assumed, form in doubt) above, with N14S, T18I, M106L counted along it

Row | Kd | koff | kon | Binder
24 | 3.2 nM | 0.00042 s⁻¹ | 130000 M⁻¹ s⁻¹ | B1
25 | 3 nM | 0.00023 s⁻¹ | 76000 M⁻¹ s⁻¹ | B2
26 | 22 nM | 0.00051 s⁻¹ | 23000 M⁻¹ s⁻¹ | B3
27 | 5.7 nM | 0.00035 s⁻¹ | 61000 M⁻¹ s⁻¹ | B4

What follows are binders tested against T4, His-tagged human CTLA-4 (CT4-H5229; …) (assay: SPR (Carterra)).
Method: (§5) Then, goat anti-Human IgG Fc (Southern Biotech 2047-01) was coupled for 10 minutes at […] in 10 mM Sodim Acetate pH 4.5 (Carterra Inc.). The surface was then deactivated with 1 M ethanolamine pH 8.5 (Carterra Inc.). Running buffer used for the lawn immobilization was HBS-EPC (10 mM HEPES, 150 mM NaCl, 3 mM EDTA, 0.05% Tween 20, pH 7.4; Teknova).
(§6) The sensor chip was then transferred to a continuous flow microspotter (CFM; Carterra Inc.) for array capturing. The mAb supernatants were diluted 50-fold ([…] final concentration) into HBS-EPC with 1 mg/mL BSA. The samples were each captured twice with 15-minute and 4-minute capture steps on the first and second prints, respectively, to create multiple densities, using a […] flow rate. The running buffer in the CFM was also HBS-EPC.
(§7) Next, the sensor chip was loaded onto an SPR reader (MX-96 system; Ibis Technologies) for the kinetic analysis. CTLA-4 was injected at five increasing concentrations in a four-fold dilution series with concentrations of 1.95, 7.8, 31.25, 125, and 500 nM in running buffer (HBS-EPC with 1.0 mg/mL BSA). CTLA-4 injections were 5 minutes with a 15-minute dissociation at […] in a non-regenerative kinetic series. An injection of the goat anti-Human IgG Fc capture antibody at […] was injected at the end of the series to verify the capture level of each mAb. Binding data was double referenced by subtracting an interspot surface and a blank injection and analyzed for ka (on-rate), kd (off-rate), and KD (affinity) using the Kinetic Interaction Tool software (Carterra Inc.).

Row | Kd | Binder
28 | 3.2 nM | B1
29 | 3 nM | B2
30 | 22 nM | B3
31 | 5.7 nM | B4

Target: T2, human CTLA-4 expressed on the cell …
Assay: cell-based or functional assay
Remark: another data set of the same source

Row | Promega assay % inhibition | Promega assay antagonist (EC50, ug/mL) | Binder
32 | 13.3% | 0.09 µg/mL | B1
33 | 81% | 0.15 µg/mL | B2
34 | 24.5% | 0.26 µg/mL | B3
35 | 61.7% | 0.18 µg/mL | B4

Target: T4, His-tagged human CTLA-4 (CT4-H5229; …)
Assay: SPR (Carterra)
Remark: another data set of the same source
Method: as §5, §6, §7

Row | Kd | koff | kon | Binder
36 | 3.2 nM | 0.00042 s⁻¹ | 130000 M⁻¹ s⁻¹ | B1
37 | 3 nM | 0.00023 s⁻¹ | 76000 M⁻¹ s⁻¹ | B2
38 | 22 nM | 0.00051 s⁻¹ | 23000 M⁻¹ s⁻¹ | B3
39 | 5.7 nM | 0.00035 s⁻¹ | 61000 M⁻¹ s⁻¹ | B4

What follows are binders tested against T3, CD27 on CHO cells (assay: flow cytometry, mixed CTLA-4+ and CD27+ CHO cells).
Method: To determine if the CTLA-4 mAbs bound the appropriate antigen expressed on the surface of mammalian cells, CHO cell lines stably expressing human CTLA-4 or an irrelevant antigen (CD27) were generated. Cells (0.5×10⁶ each cell line) were combined and washed with MACS buffer (Dulbecco's Phosphate Buffered Saline [DPBS], with 0.5% bovine serum albumin [BSA], and 2 mM ethylenediaminetetraacetic acid [EDTA]). The cells were incubated with 10 μg/mL anti-CTLA-4 for 30 min at 4° C., then excess, unbound mAbs were removed by washing twice with MACS buffer. The cells were then stained with PE-conjugated anti-Human IgG Fc antibody (clone M1310G05, BioLegend 410720, San Diego, Calif., USA) to detect bound anti-CTLA-4 and with fluorescein isothiocyanate (FITC)-conjugated anti-CD27 (clone 0323, BioLegend 302806, San Diego, Calif., USA) to distinguish the cells expressing the irrelevant antigen. Cells were washed twice with MACS buffer, fixed with 4% paraformaldehyde fixation buffer (BioLegend 420801, San Diego, Calif., USA) for 20 minutes at room temperature and washed twice more with MACS buffer. […] Binding of mAbs to CTLA-4 on the cell surface was determined using LSR II (BD Biosciences, San Jose, Calif., USA) or CytoFLEX LX (Beckman Coulter, Brea. Calif., USA) flow cytometers and analyzed using FlowJo (v10.6.1, BD Biosciences, San Jose, Calif., USA).

Row | binding result | Binder
40 | no binding (tested: 10 µg/mL) | B1
41 | no binding (tested: 10 µg/mL) | B2
42 | no binding (tested: 10 µg/mL) | B3
43 | no binding (tested: 10 µg/mL) | B4
